Source: article PMC4900533

How the values were obtained:
[1] = confocal microscopy, apical marker gp135, MDCKII; conditions: glycan lost; control: wild type
[2] = immunoblot of PNGase F-treated MDCKII lysates, densitometry; conditions: glycan lost; control: wild type
[3] = immunoblot after 24 h 2 μM MG132; conditions: glycan lost; control: wild type
[4] = cycloheximide chase, immunoblot, MDCKII; conditions: glycan lost; control: wild type
[5] = confocal microscopy after 12 h cycloheximide; conditions: glycan lost; control: wild type
[6] = immunoblot, high vs low glucose medium, MDCKII; conditions: glycan lost; control: wild type
[7] = immunoblot of ABCC11 WT, with/without PNGase F, MDCKII; conditions: glycan lost; control: high glucose medium
[8] = immunoblot, ABCC11-EGFP in MDCKII, PNGase F-treated lysates; conditions: glycan lost; control: untreated cells
[9] = immunoblot, non-tagged ABCC11, adenovirus-infected MDCKII; conditions: glycan lost; control: untreated cells

## ABCC11 (MRP8): Q838
[1]
  localisation_or_trafficking: no change
[2]
  expression_or_secretion, percent_of_wt: no change

## ABCC11 (MRP8): Q838/844
[3]
  other: MG132-sensitive degradation, fold_change: increases, about 2-fold vs no significant difference
[4]
  degradation_or_half_life, half_life: decreases, about 6.2 vs about 12
[5]
  degradation_or_half_life: decreases
[2]
  expression_or_secretion, percent_of_wt: decreases
[6]
  other: glucose sensitivity of protein level: abolishes

## ABCC11 (MRP8): Q844
[1]
  localisation_or_trafficking: no change
[2]
  expression_or_secretion, percent_of_wt: no change

## ABCC11 (MRP8): low glucose medium
[7]
  expression_or_secretion: decreases

## ABCC11 (MRP8): tunicamycin (0.8, 4.0 μg/mL)
[8]
  expression_or_secretion: decreases

## ABCC11 (MRP8): tunicamycin (4.0 μg/mL)
[9]
  expression_or_secretion, other: percent of untreated control: decreases
